Legend:
[1] = target: T1, human CD3ε on T cells (Jurkat T cell line; CD4+ and CD8+ T cells from healthy human donors) (human, UniProt P07766 23-207); assay: FACS on CD4+ T cells from PBMCs of healthy donors, antibody at 0.1 µg/ml
T1 construct: whole, on cells
Protocol: (§1) Binding was also evaluated by FACS on different cell populations including T cell lines and natural cell populations derived from healthy blood donors. First, control and antiCD3ε candidates were tested at different concentration on the human T cell line Jurkat. […] Binding to native cell populations was performed by isolating PBMCs from healthy donors and evaluating binding to CD4+ and CD8+ T cells as well as B cells.

[2] = target: T1, human CD3ε on T cells (Jurkat T cell …); assay: FACS on CD8+ T cells from PBMCs of healthy donors, antibody at 0.1 µg/ml
Protocol: as §1

T1 sequence (P07766 23-207): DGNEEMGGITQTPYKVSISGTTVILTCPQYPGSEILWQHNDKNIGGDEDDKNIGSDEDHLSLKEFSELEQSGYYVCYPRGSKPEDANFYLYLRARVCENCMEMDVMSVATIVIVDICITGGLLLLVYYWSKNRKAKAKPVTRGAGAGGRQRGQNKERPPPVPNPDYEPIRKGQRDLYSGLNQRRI

| Binder | MFI on CD4+ T cells [1] [MFI] | MFI on CD8+ T cells [2] [MFI] |
| --- | --- | --- |
| IgG 1D8 (antibody, V domains shown, also called L3sp34-G1-1-R2-P1_D8) VH: EVQLVESGGGLVQPGGSLKLSCAASGFTFNTYAMNWVRQAPGKGLEWVGRIRSKYNNYATYYADSVKDRFTISRDDSKNTAYLQMNSLKTEDTAVYYCVRHGNFGNSYVSWFAYWGQGTLVTVSS VL: QTVVTQEPSLTVSPGGTVTLTCRSSTGAVTTSNYANWFQQKPGQAPRGLIGGTNKRAPGTPARFSGSLLGGKAALTLSGAQPEDEAEYYCALWYDGTWVFGGGTKLTVL | 286 | 161 |
| IgG 1B6 (antibody, V domains shown, also called L3sp34-G1-1-R2-P1_B6) VH: EVQLVESGGGLVQPGGSLKLSCAASGFTFNTYAMNWVRQAPGKGLEWVGRIRSKYNNYATYYADSVKDRFTISRDDSKNTAYLQMNSLKTEDTAVYYCVRHGNFGNSYVSWFAYWGQGTLVTVSS VL: QTVVTQEPSLTVSPGGTVTLTCRSSTGAVTTSNYANWFQQKPGQAPRGLIGGTNKRAPGTPARFSGSLLGGKAALTLSGAQPEDEAEYYCALWYANRWVFGGGTKLTVL | 231 | 130 |
| IgG 1A11 (antibody, V domains shown, also called L3sp34-G1-1-R2-P1_A11) VH: EVQLVESGGGLVQPGGSLKLSCAASGFTFNTYAMNWVRQAPGKGLEWVGRIRSKYNNYATYYADSVKDRFTISRDDSKNTAYLQMNSLKTEDTAVYYCVRHGNFGNSYVSWFAYWGQGTLVTVSS VL: QTVVTQEPSLTVSPGGTVTLTCRSSTGAVTTSNYANWFQQKPGQAPRGLIGGTNKRAPGTPARFSGSLLGGKAALTLSGAQPEDEAEYYCALWYDGWWVFGGGTKLTVL | 205 | 119 |
| IgG 1F8 (antibody, V domains shown, also called L3sp34-G1-2-R2-P1_F8) VH: EVQLVESGGGLVQPGGSLKLSCAASGFTFNTYAMNWVRQAPGKGLEWVGRIRSKYNNYATYYADSVKDRFTISRDDSKNTAYLQMNSLKTEDTAVYYCVRHGNFGNSYVSWFAYWGQGTLVTVSS VL: QTVVTQEPSLTVSPGGTVTLTCRSSTGAVTTSNYANWFQQKPGQAPRGLIGGTNKRAPGTPARFSGSLLGGKAALTLSGAQPEDEAEYYCALWYDGKWVFGGGTKLTVL | 284 | 157 |
| IgG 1A10 (antibody, V domains shown, also called L3sp34-G1-2-R2-P1_A10) VH: EVQLVESGGGLVQPGGSLKLSCAASGFTFNTYAMNWVRQAPGKGLEWVGRIRSKYNNYATYYADSVKDRFTISRDDSKNTAYLQMNSLKTEDTAVYYCVRHGNFGNSYVSWFAYWGQGTLVTVSS VL: QTVVTQEPSLTVSPGGTVTLTCRSSTGAVTTSNYANWFQQKPGQAPRGLIGGTNKRAPGTPARFSGSLLGGKAALTLSGAQPEDEAEYYCALWYKGYWVFGGGTKLTVL | 96 | 43 |
| IgG 1A4 (antibody, V domains shown, also called L3sp34-G1-2-R2-P1_A4) VH: EVQLVESGGGLVQPGGSLKLSCAASGFTFNTYAMNWVRQAPGKGLEWVGRIRSKYNNYATYYADSVKDRFTISRDDSKNTAYLQMNSLKTEDTAVYYCVRHGNFGNSYVSWFAYWGQGTLVTVSS VL: QTVVTQEPSLTVSPGGTVTLTCRSSTGAVTTSNYANWFQQKPGQAPRGLIGGTNKRAPGTPARFSGSLLGGKAALTLSGAQPEDEAEYYCALWYKQRWVFGGGTKLTVL | 284 | 173 |
